Details in all cases: remark: other sources report otherwise
Assay [1] deals with T1, recombinant soluble homotrimeric HA of A/Hong Kong/1073/99 (H9N2) (Influenza A virus A/Hong Kong/1073/99 (H9N2)). Nature of the assay: trimeric HA microarray, transfection supernatant set 3.
The target of assay [2] is T2, recombinant soluble homotrimeric HA of A/Wisconsin/67/05 (H3N2) (Influenza A virus A/Wisconsin/67/2005(H3N2)). Described as above.
In assay [3] the target is T3, recombinant soluble homotrimeric HA of A/duck/Yangzhou/02/05 (H8N4) (Influenza A virus A/duck/Yangzhou/02/2005(H8N4)). Described as above.
The target in assay [4] is T4, recombinant soluble homotrimeric HA of A/northern shoveler/California/HKWF115/07 (H6) (Influenza A virus A/northern shoveler/California/HKWF115/2007(H6N1)). The assay is described as above.
Assay [5] addresses T5, recombinant soluble homotrimeric HA of A/swine/Ontario/01911-2/99 (H4N6) (Influenza A virus A/Swine/Ontario/01911-2/99 (H4N6)). The description is as above.
Assay [6] addresses T1, recombinant soluble homotrimeric HA of …. Put plainly: trimeric HA microarray, transfection supernatant set 2.
Assay [7] has as its target recombinant soluble homotrimeric HA of A/Hong Kong/2108/03 (H9N2) (Influenza A virus A/HK/2108/2003(H9N2)). The description is as above.
In assay [8] the target is T2, recombinant soluble homotrimeric HA of …. The assay is described as above.
For assay [9], the target named is T3, recombinant soluble homotrimeric HA of …. The assay is described as above.
Assay [10] concerns the target T4, recombinant soluble homotrimeric HA of …. The description is as above.
Assay [11] has as its target T5, recombinant soluble homotrimeric HA of …. The assay is described as above.
Assay [12] addresses recombinant soluble homotrimeric HA of A/Anhui/1/05 (H5N1) (Influenza A virus A/Anhui/1/2005(H5N1)). Put plainly: trimeric HA microarray, transfection supernatant set 4.
The target in assay [13] is recombinant soluble homotrimeric HA of A/California/4/09 (H1N1) (Influenza A virus A/California/04/2009(H1N1)). The description is as above.
For assay [14], the target named is recombinant soluble homotrimeric HA of A/Egypt/3300-NAMRU3/08 (H5N1) (Influenza A virus A/Egypt/3300-NAMRU3/2008(H5N1)). Described as above.
In assay [15] the target is recombinant soluble homotrimeric HA of A/Indonesia/5/05 (H5N1) (Influenza A virus A/Indonesia/5/2005(H5N1)). The assay is described as above.
Assay [16] deals with recombinant soluble homotrimeric HA of A/Japan/305/57 (H2N2) (Influenza A virus A/Japan/305/1957(H2N2)). Described as above.
For assay [17], the target named is recombinant soluble homotrimeric HA of A/Solomon Islands/3/06 (H1N1) (Influenza A virus A/Solomon Islands/3/2006(H1N1)). The assay is described as above.
The target in assay [18] is recombinant soluble homotrimeric HA of A/South Carolina/1/18 (H1N1) (Influenza A virus A/South Carolina/1/18 (H1N1)). The description is as above.
The target of assay [19] is recombinant soluble homotrimeric HA of A/Vietnam/1203/04 (H5N1) (Influenza A virus A/VietNam/1203/2004(H5N1)). Described as above.
The target in assay [20] is T2, recombinant soluble homotrimeric HA of …. Described as above.
For assay [21], the target named is recombinant soluble homotrimeric HA of A/chicken/Vietnam/NCVD-016/08 (H5N1) (Influenza A virus A/chicken/Vietnam/NCVD-016/2008(H5N1)). Described as above.
In assay [22] the target is T3, recombinant soluble homotrimeric HA of …. Described as above.
The target in assay [23] is T5, recombinant soluble homotrimeric HA of …. The description is as above.
The target of assay [24] is T1, recombinant soluble homotrimeric HA of …. The description is as above.
Assay [25] addresses T4, recombinant soluble homotrimeric HA of …. The description is as above.

B1: TCN-530 (5248_H10a) (antibody, V domains shown)
VH: QVQLVQSGAEVRKPGSSVKVSCKASGGPFMSYAIGWVRQAPGQGLEWMGGINPVFGRPHYAQKFQGRVTIATDDSTKTSYMELSSLTSEDTGMYYCASRYSRSSPGTFESWGQGTLVTVSS
VL: EIVMTQFPATLSVSPGERVTLSCRASQSVSNNLAWYQQKPGQPPRLLIYDASTRATGVPAKFSGTGSGTEFTLSISSLQSEDFAVYYCQQYHNWPPSYSFGLGTKLEIK
Turning to B1, the Trimeric HA Binding: RLU in [1] amounted to 10200 RLU; in assay [2] it was 3050 RLU; in [3], 227 RLU; in [4], 23500 RLU; in assay [5], 123 RLU.

B2: TCN-563 (5237_B21) (antibody, V domains shown)
VH: QVQLAQSGAEVKRPGSSVKVSCTASGGIFRKNAISWVRQAPGQGLEWMGGIIAVFNTANYAQKFQGRVKITADESGNTAYMELSSLRSDDTAVYYCASHPKYFYGSGSYPDFWGQGTLVTVSS
VL: QSALTQPRSVSGSPGQSVTISCTGSSSDVGASNSVSWYQQHPGKAPKLVIYDVTERPSGVPHRFSGSKSGNTASLTVSGLQPEDEADYFCCAYGGKYLVVFGGGTKVTVL
Turning to B2, the Trimeric HA Binding: RLU in assay [6] came to 49200 RLU; in assay [7], 364 RLU; in [8] it was 23700 RLU; in assay [9], 6280 RLU; in assay [10] it was 21900 RLU; in assay [11], 2250 RLU.

B3: TCN-522 (3212_I12) (antibody, V domains shown)
VH: QVQLQQWGAGLLKPSETLSLTCTVSGGSLTDYSWNWIRQPPGKGLEWIGDTLHNGYTNYNPSLRGRVSISIDTSKNQVSLRLTSVTAADTALYYCARGSGGYGGFDYFGKLRTWDFWGQGTLVTVSS
VL: DIQLTQSPSSLSASVGDRVTITCRASQGIRNDLGWYQQKPGNAPKRLIFGASSLQSGVPSRFSGSGSGTEFTLTISSLQPEDFATYYCLQHNSYPYTFGQGTKLEIK
Take B3: the Trimeric HA Binding: RLU in assay [6] is 11800 RLU; in assay [7] it was 203 RLU; in [9], 1650 RLU; in assay [10], 54400 RLU.

B4: TCN-527 (5086_C06) (antibody, V domains shown)
VH: QVQLQESGPGLVKPSETLSLNCAVSGGSISNYYWSWIRQPPGKGLEWIGYISYNGRPKYNPSLTSRVTISVDTSKDQFSLELRSVTAADTALYYCARETRFGELLSPYDAFEIWGQGTMVTVSS
VL: DIQMTQSPSSLSASVGDRVTMTCRASQNIRSYLNWYQQRPGTAPKLLIYAASTLHSGVPSRFSGGGSGTDFTLTINNLQPEDFASYYCQQSYDNPQTFGQGTKVEIK
As to B4, the Trimeric HA Binding: RLU was 25500 RLU in [7]; 35800 RLU in assay [8]; 17900 RLU in [9]; 19300 RLU in assay [10]; 30100 RLU in [11].

B5: TCN-528 (5087_P17) (antibody, V domains shown)
VH: QVQLVQSGSEVKKPGASVKVSCKASGYTFTNYDINWIRQAPGQGLEWMGWINPNSGTTGSAQRFQGRVTITVDTSITTVYMELSSLRSDDTAIYYCARGRELLRLQHFLTDSQSERRDCFDPWGQGTLVTVSS
VL: DIQMTQSPSSLSASVGDRVTITCRANQDIGIYLNWYQQNPGKVPKLLLHGASSLQGGVPSRFSASGSGTDFTLTIHSLQPEDLATYYCQQSRRLPYTFGQGTRVELK
Regarding B5, the Trimeric HA Binding: RLU is 33600 RLU in [7]; 46000 RLU in assay [8]; 19800 RLU in assay [9]; 28400 RLU in [10]; 49200 RLU in [11].

B6: TCN-504 (3251_K17) (antibody, V domains shown)
VH: QVQLQESGPGLVKPSETLSLTCAVSGVSISNIDFYWGWIRQPPGKGLEWIGNIYYTGITFYNPSLSSRVAISIDTSKNQFSLTLTSVTAADTAMYYCARHYGDSEAINDAFDIWGQGTMLTVSS
VL: EIVMTQSPATLSVSPGERATLSCRASQSVGNSLAWYQQRPGQAPRLLIYGASTRATGIPPRFSGSGSGTEFTLTISSLQTEDFAVYYCQQYINWRPLSFGGGTKVEIK
As for B6, the Trimeric HA Binding: RLU in assay [8] worked out at 21600 RLU; in assay [9], 17800 RLU; in [11], 32500 RLU; in [2] it was 21400 RLU; in assay [3], 19600 RLU; in [5], 34500 RLU. Moreover, the Trimeric HA Binding: RLU in [12] stood at 14100 RLU; in assay [13], 549 RLU; in [14] it was 24800 RLU; in [15], 18200 RLU; in [16], 19600 RLU; in [17], 14600 RLU. For the same molecule, the Trimeric HA Binding: RLU in assay [18] was 21700 RLU; in assay [19], 25700 RLU; in [20], 20600 RLU; in assay [21], 19200 RLU; in assay [22], 19900 RLU; in [23] it was 21800 RLU.

B7: TCN-535 (5246_P19) (antibody, V domains shown)
VH: QVQLVQSGSEVKKPGTSVKVSCTASGSVFTNYGISWVRQAPGQGLEWMGGIIPLFGAAKYAQKFQGRVTITADESTKTVYMELSRLTSKDTAIYFCAKAPRVYEYYFDQWGQGTPVTVSS
VL: EIVLTQSPGTLSLSPGERATLSCRASQSVSSSQLAWYQQKPGQAPRLIIYGASTRATGIPDRFSGSGSGTDFTLTIGRLEPEDFAVFFCQQYSTSPPTFGQGTKVDFK
B7: the Trimeric HA Binding: RLU in assay [12] worked out at 24 RLU; in assay [13], 25200 RLU; in assay [14], 25300 RLU; in [24], 21200 RLU; in [15], 18200 RLU; in assay [16] it was 21500 RLU. The Trimeric HA Binding: RLU in assay [17] worked out at 836 RLU; in [18] it was 22400 RLU; in assay [19] it was 25200 RLU; in assay [20], 4450 RLU; in [21], 20900 RLU; in assay [22], 428 RLU. Besides, in assay [25], the Trimeric HA Binding: RLU was 18100 RLU.

The record behind these values is patent publication US20150086555A1.
